According to patent publication US20030124664:

Target: human growth hormone (hGH) with the N-terminal phenylalanine, expressed and secreted from plasmid phGH4R, P01241
Sequence (P01241 27-217): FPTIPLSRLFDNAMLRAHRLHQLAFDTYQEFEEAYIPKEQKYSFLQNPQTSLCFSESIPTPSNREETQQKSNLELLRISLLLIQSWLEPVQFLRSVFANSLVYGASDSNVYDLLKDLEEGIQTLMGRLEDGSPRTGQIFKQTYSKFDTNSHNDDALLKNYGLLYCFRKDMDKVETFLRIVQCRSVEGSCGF

B1: native-sequence aminopeptidase b2324 (product of the E. coli chromosomal yfcK gene) (protein)
chain: MRSLTHIAKIEPPPVRRVTYVKHYSIQPANLEFNAEGTPVSRDFDDVYFSNDNGLEETRYVFLGGNQLEVRFPEHPHPLFVVAESGFGTGLNFLTLWQAFDQFREAHPQAQLQRLHFISFEKFPLTRADLALAHQHWPELAPWAEQLQAQWPMPLPGCHRLLLDEGRVTLDLWFGDINELTSQLDDSLNQKVDAWFLDGFAPAKNPDMWTQNLFNAMARLARPGGTLATFTSAGFVRRGLQDAGFTMQKRKGFGRKREMLCGVMEQTLPLPCSAPWFNRTGSSKREAAIIGGGIASALLSLALLRRGWQVTLYCADEAPALGASGNRQGALYPLLSKHDEALNRFFSNAFTFARRFYDQLPVKFDHDWCGVTQLGWDEKSQHKIAQMLSMDLPAELAVAVEANAVEQITGVATNCSGITYPQGGWLCPAELTRNVLELAQQQGLQIYYQYQLQNLSRKDDCWLLNFAGDQQATHSVVVLANGHQISRFSQTSTLPVYSVAGQVSHIPTTPELAELKQVLCYDGYLTPQNPANQHHCIGASYHRGSEDTAYSEDDQQQNRQRLIDCFPQAQWAKEVDVSDKEARCGVRCATRDHLPMVGNVPDYEATLVEYASLAEQKDEAVSAPVFDDLFMFAALGSRGLCSAPLCAEILAAQMSDEPIPMDASTLAALNPNRLWVRKLLKGKAVKAG
- N-terminal cleavage of hGH in crude lysate (LC-MS), yfcK deletion strain against control: virtually no phenylalanine-cleaved impurities after 15 hours of incubation at 37 °C
